Assay results taken from patent US20240091307A1, “COMBINATION THERAPIES OF AMUC_1100 AND IMMUNE CHECKPOINT MODULATORS FOR USE IN TREATING CANCERS” (COMMBIO THERAPEUTICS CO., LTD., priority 2020, published 2024).
Changes are numbered by the printed parent chain. Names and notes keep the numbering of the source.

B1: Amuc_1100 (31-317, Y289A): Amuc_1100 (31-317) mutant protein with single point mutation Y289A, numbering relative to SEQ ID NO: 1 (protein)
chain: MIVNSKRSELDKKISIAAKEIKSANAAEITPSRSSNEELEKELNRYAKAVGSLETAYKPFLASSALVPTTPTAFQNELKTFRDSLISSCKKKNILITDTSSWLGFQVYSTQAPSVQAASTLGFELKAINSLVNKLAECGLSKFIKVYRPQLPIETPANNPEESDEADQAPWTPMPLEIAFQGDRESVLKAMNAITGMQDYLFTVNSIRIRNERMMPPPIANPAAAKPAAAQPATGAASLTPADEAAAPAAPAIQQVIKPAMGKEQVFVQVSLNLVHFNQPKAQEPSED
B2: Amuc_1100 (31-317): Naturally-occurring fragment (residues 31-317) of Akkermansia muciniphila outer-membrane protein Amuc_1100; recombinant protein (protein)
chain: B1 chain with A260Y
B3: secreted Amuc_1100 (31-317) from genetically engineered EcN: Amuc_1100 protein isolated from culture media of EcN strain CBT1108 by his-tag antibody resin, endotoxin removed (protein)
chain: B1 chain with A260Y

Key:
[1] = system: proteases trypsin and α-chymotrypsin; experiment: Protease digestion stability (trypsin and α-chymotrypsin, SDS-PAGE, Coomassie blue); type: in vitro ADME; details: trypsin 0.01 mg/ml and α-chymotrypsin 0.01 mg/ml, 37° C., 30 min; versus wild type; FIG. 3A
Procedure: Recombinant Amuc_1100 wild type (WT) and mutant protein are digested by proteases trypsin (0.01 mg/ml) and α-chymotrypsin (0.01 mg/ml) at […] for 30 min. The samples are subjected to SDS-PAGE gel electrophoresis and Coomassie blue staining. Lane A: Amuc_1100 (31-317, Y289A) without proteases; Lane B: Amuc_1100 (31-317, Y289A) with proteases; Lane C: Amuc_1100 (31-317, WT) without proteases; Lane D: Amuc_1100 (31-317, WT) with proteases; MW: molecular weight marker (KD).)
Some mutants of the […] (31-317) may reduce protein degradation by proteases. The amino acid sequence (SEQ ID NO: 146) and nucleotide sequence (SEQ ID NO: 147) of Amuc_1100 (31-317, Y289A) with 6×His tag at the C-terminus expressed by the plasmid described above (FIG. 1) were shown in FIG. 2. The recombinant Amuc_1100 (31-317) protein and mutant protein (31-317, Y289A) were digested by proteases trypsin (0.01 mg/ml) and α-chymotrypsin (0.01 mg/ml) at 37° C. for 30 min. The samples were then subjected to SDS-PAGE gel electrophoresis and Coomassie blue staining.

[2] = system: spontaneous breast cancer in MMTV-PyVT transgenic C57BL/6 female mice; experiment: Spontaneous breast cancer model, tumor growth rate and H&E staining; type: in vivo; details: Amuc_1100 proteins 3 μg/kg oral gavage daily 4 weeks; anti-PD-1 10 mg/kg i.v. every three days 3 weeks; FIG. 4, FIG. 5
Procedure: The MMTV-PyVT transgenic C57BL/6 female mice were used to develop spontaneous breast cancer. Mice at age of 9.5 weeks were randomly divided into 6 groups with 4-5 mice in each group and were subjected to agent treatment. The mice in the control group were treated with PBS by oral gavage daily for 4 weeks, plus PBS i.v. injection daily after one week of oral gavage for 3 weeks. […] All the spontaneously developed tumors were monitored. Tumor sizes were measured twice every week. The health status of mice was closely monitored. Tumor growth rate of each tumor in mouse following agent treatment was analyzed. […]

[3] = Body weight gain in mouse model; type: in vivo, mice; details: 3 μg/kg oral gavage daily for 4 weeks; compared to PBS control group
Procedure: Mice at age of 9.5 weeks were randomly divided into 3 groups with 4-5 mice in each group and were subjected to agent treatment. The mice in the control group and test groups were treated with PBS, Amuc_1100 (31-317), or Amuc_1100 (31-317, Y289A) (3 μg/kg) by oral gavage daily for 4 weeks, respectively. The body weight of each mouse in each group was measured twice every week.

TLR2 [4] = molecular target: T1, TLR2 (Homo sapiens, UniProt O60603); experiment: TLR2 reporter gene assay in HEK293 cells (QUANTI-Blue); type: cell-based; design: host or cells: HEK293; details: HEK293 cells expressing human TLR2 and reporter gene; FIG. 3B
Procedure: HEK293 cells expressing human TLR2 receptor and its reporter gene (InvivoGen, hkb-htlr2) were seeded in a 96-well plate and treated by […] (31-317) or mutant recombinant Amuc_1100 (31-317, Y289A). The reporter gene activity was detected by QUANTI-Blue™ (InvivoGen, rep-qbs2), and the cell viability was detected by CellTiterGlo (Promega, G7573) by following the reagent kits' instruction. The results were shown in FIG. 3B (Pam3CSK4 is the positive control for TLR2 ligand). […] All agents show no significant impact on cell viability.

TLR2 [5] = molecular target: T1, TLR2; experiment: TLR2 reporter assay of Amuc_1100 secreted from engineered EcN; type: cell-based; design: expressed in transfected cells; host or cells: HEK293; details: HEK293/TLR2 reporter cells, 24 hours, colorimetric; protein isolated from CBT1108 culture media; FIG. 17
Procedure: The genetically engineered bacteria EcN strain CBT1108 obtained in Example 6 were cultured, and the culture media was collected at late exponential growth stage. The […] (31-317) protein was isolated from the culture media by his-tag antibody-containing resin column. The endotoxin was removed from the isolated Amuc_1100 (31-317) protein.
The Amuc_1100 (31-317) activity was tested by TLR2 reporter assay. Specifically, HEK293/TLR2 reporter cells were stimulated in 96-well plate with certain amount of protein for 24 hours, the reporter enzyme's substrate was added into the cell media and the activity was measured by colorimetric method.

T1 sequence (O60603 21-784): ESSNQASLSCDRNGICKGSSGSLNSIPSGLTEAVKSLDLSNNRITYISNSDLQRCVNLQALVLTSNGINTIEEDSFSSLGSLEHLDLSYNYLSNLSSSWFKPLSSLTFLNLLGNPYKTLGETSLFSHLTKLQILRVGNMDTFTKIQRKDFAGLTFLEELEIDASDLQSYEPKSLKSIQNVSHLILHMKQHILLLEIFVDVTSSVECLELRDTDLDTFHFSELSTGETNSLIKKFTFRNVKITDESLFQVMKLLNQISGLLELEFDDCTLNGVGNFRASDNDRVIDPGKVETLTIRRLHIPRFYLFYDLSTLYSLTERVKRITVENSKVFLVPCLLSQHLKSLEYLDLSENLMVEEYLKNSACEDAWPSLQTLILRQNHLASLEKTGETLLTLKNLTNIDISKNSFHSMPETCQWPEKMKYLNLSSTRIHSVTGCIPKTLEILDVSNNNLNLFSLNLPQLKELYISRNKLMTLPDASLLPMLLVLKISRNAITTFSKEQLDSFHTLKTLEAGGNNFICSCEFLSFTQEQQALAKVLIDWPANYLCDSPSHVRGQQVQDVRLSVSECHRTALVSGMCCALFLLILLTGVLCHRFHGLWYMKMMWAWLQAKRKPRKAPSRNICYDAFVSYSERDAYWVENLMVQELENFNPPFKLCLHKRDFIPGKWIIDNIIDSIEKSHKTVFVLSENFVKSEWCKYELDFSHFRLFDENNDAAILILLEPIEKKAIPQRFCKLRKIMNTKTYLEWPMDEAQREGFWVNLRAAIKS

Row | Molecule | resistance to enzyme digestion [1] | tumor growth inhibition [2] | changes in body weights [3] | EC50 for TLR2 activation (TLR2 [4]) | TLR2 signal stimulation (TLR2 [5])
1 | B1 | more resistant to enzyme digestion compared to wild type Amuc_1100 protein | partially inhibited tumor growth | no significant changes in body weights | 0.951 µg/mL | –
2 | B2 | – | partially inhibited tumor growth | no significant changes in body weights | 0.535 µg/mL | –
3 | B3 | – | – | – | – | stimulated TLR2 signal
